Assay results: PMC11774805, “The C-terminal α-helix is crucial for the activity of the bacterial ABC transporter BmrA” (The Journal of Biological Chemistry, 2024)
Substitutions are numbered along the chain they refer to.

B1: Bacillus multidrug resistance ATP (BmrA) wt, full-length half-transporter (natural protein, Bacillus subtilis strain 168, UniProt O06967 1-589, looked up)
chain: MPTKKQKSKSKLKPFFALVRRTNPSYGKLAFALALSVVTTLVSLLIPLLTKQLVDGFSMSNLSGTQIGLIALVFFVQAGLSAYATYALNYNGQKIISGLRELLWKKLIKLPVSYFDTNASGETVSRVTNDTMVVKELITTHISGFITGIISVIGSLTILFIMNWKLTLLVLVVVPLAALILVPIGRKMFSISRETQDETARFTGLLNQILPEIRLVKASNAEDVEYGRGKMGISSLFKLGVREAKVQSLVGPLISLVLMAALVAVIGYGGMQVSSGELTAGALVAFILYLFQIIMPMGQITTFFTQLQKSIGATERMIEILAEEEEDTVTGKQIENAHLPIQLDRVSFGYKPDQLILKEVSAVIEAGKVTAIVGPSGGGKTTLFKLLERFYSPTAGTIRLGDEPVDTYSLESWREHIGYVSQESPLMSGTIRENICYGLERDVTDAEIEKAAEMAYALNFIKELPNQFDTEVGERGIMLSGGQRQRIAIARALLRNPSILMLDEATSSLDSQSEKSVQQALEVLMEGRTTIVIAHRLSTVVDADQLLFVEKGEITGRGTHHELMASHGLYRDFAEQQLKMNADLENKAG
notes: BmrA, ABC half-transporter of Bacillus subtilis strain 168, full length (last residue G589); Cloned into pET303-CT/His; source: E. coli, purified in presence of detergent (DDM)
B2: BmrA K579C (natural protein, Bacillus subtilis strain 168, UniProt O06967 1-589, looked up)
chain: B1 chain with K579C
notes: BmrA of Bacillus subtilis strain 168, full length, K579 replaced by Cys; Forms a disulfide-linked dimer without DTT; source: E. coli, purified in presence of detergent (DDM)
B3: BmrA M580C (natural protein, Bacillus subtilis strain 168, UniProt O06967 1-589, looked up)
chain: B1 chain with M580C
notes: BmrA of Bacillus subtilis strain 168, full length, M580 replaced by Cys; Forms a disulfide-linked dimer without DTT; source: E. coli, purified in presence of detergent (DDM)
B4: BmrA N581C (natural protein, Bacillus subtilis strain 168, UniProt O06967 1-589, looked up)
chain: B1 chain with N581C
notes: BmrA of Bacillus subtilis strain 168, full length, N581 replaced by Cys; Forms a disulfide-linked dimer without DTT; source: E. coli, purified in presence of detergent (DDM)
B5: BmrA A582C (natural protein, Bacillus subtilis strain 168, UniProt O06967 1-589, looked up)
chain: B1 chain with A582C
notes: BmrA of Bacillus subtilis strain 168, full length, A582 replaced by Cys; Forms a disulfide-linked dimer without DTT; source: E. coli, purified in presence of detergent (DDM)
B6: BmrA D583C (natural protein, Bacillus subtilis strain 168, UniProt O06967 1-589, looked up)
chain: B1 chain with D583C
notes: BmrA of Bacillus subtilis strain 168, full length, D583 replaced by Cys; Forms a disulfide-linked dimer without DTT; source: E. coli, purified in presence of detergent (DDM)

Target: the molecule itself
Assay: cross-linking + native gel or EMSA; blue native PAGE of purified BmrA wt and Cys variants; 0.25 mg/ml preincubated ± 100 uM DTT for 30 min at room temperature, then DDM to 1%; no ATP; 4 to 16% Bis-Tris gel; dimer to monomers

Stoichiometry N, 2:
B1, B2, B3, B4, B5, B6
